{"source": "patent US20180326059A1", "about": "(GANYMED PHARMACEUTICALS, published 2018)", "binders": {"B1": {"name": "IMAB362 (antibody, V domains shown)", "VH": "QVQLQQPGAELVRPGASVKLSCKASGYTFTSYWINWVKQRPGQGLEWIGNIYPSDSYTNYNQKFKDKATLTVDKSSSTAYMQLSSPTSEDSAVYYCTRSWRGNSFDYWGQGTTLTVSS", "VL": "DIVMTQSPSSLTVTAGEKVTMSCKSSQSLLNSGNQKNYLTWYQQKPGQPPKLLIYWASTRESGVPDRFTGSGSGTDFTLTISSVQAEDLAVYYCQNDYSYPFTFGSGTKLEIKR", "modifications": "In the in vivo imaging of Example 14 the antibody carried a Dyelight 680 label, site not given; unlabelled in the flow cytometry."}}, "target": "Claudin 18 splice variant 2 (CLDN18.2), human (human)", "experiment": "cell-based or functional assay", "data": [{"binder": "B1", "values": [{"measurement": "IMAB362-mediated ADCC on NUGC-4 cells, EC50 on chemotherapy-pretreated versus untreated target cells", "result": "~0.33 fraction of the EC50 on untreated cells"}]}]}
